Experiment [1] has as its target FlhA from the lateral flagella of Vibrio parahaemolyticus (Vibrio parahaemolyticus). Briefly: cryo-EM structure; purified full-length protein at 0.8-1 mg/ml in TBS with 0.01% LMNG; single particle analysis in Relion; C9 symmetry imposed for Vp-FlhA, D9 for Ye-SctV; only the cytoplasmic domain resolved.
The target in experiment [2] is SctV from Yersinia enterocolitica (Yersinia enterocolitica). The description is as above.

Consider “FlhA from the lateral flagella of Vibrio parahaemolyticus (natural protein)”, for which, in experiment [1], the stoichiometry N (usually a count of units in the complex or per binding partner) came to 9.
In experiment [2], “SctV from Yersinia enterocolitica (natural protein)” yielded a stoichiometry N of 9.

(Values after publication PMC8213127.)
